In publication PMC10873621:

Biological target: RNF20 (UniProt Q5VTR2)
Assay: co-IP with anti-Myc, anti-Flag blot
Details: reference: Flag-LSD1-WT; sites T810,S817,T841,S849,S851

LSD1 (from UniProt O60341) Flag-LSD1-5A
binding against the reference: weaker
